# B1: extracellular domain of human Tie2 fused with Fc (hTie2-ECD-Fc) (Fc fusion)
# chain: AMDLILINSLPLVSDAETSLTCIASGWRPHEPITIGRDFEALMNQHQDPLEVTQDVTREWAKKVVWKREKASKINGAYFCEGRVRGEAIRIRTMKMRQQASFLPATLTMTVDKGDNVNISFKKVLIKEEDAVIYKNGSFIHSVPRHEVPDILEVHLPHAQPQDAGVYSARYIGGNLFTSAFTRLIVRRCEAQKWGPECNHLCTACMNNGVCHEDTGECICPPGFMGRTCEKACELHTFGRTCKERCSGQEGCKSYVFCLPDPYGCSCATGWKGLQCNEACHPGFYGPDCKLRCSCNNGEMCDRFQGCLCSPGWQGLQCEREGIQRMTPKIVDLPDHIEVNSGKFNPICKASGWPLPTNEEMTLVKPDGTVLHPKDFNHTDHFSVAIFTIHRILPPDSGVWVCSVNTVAGMVEKPFNISVKVLPKPLNAPNVIDTGHNFAVINISSEPYFGDGPIKSKKLLYKPVNHYEAWQHIQVTNEIVTLNYLEPRTEYELCVQLVRRGEGGEGHPGPVRRFTTASIGLPPPRGLNLLPKSQTTLNLTWQPIFPSSEDDFYVEVERRSVQKSDQQNIKVPGNLTSVLLNNLHPREQYVVRARVNTKAQGEWSEDLTAWTLSDILPPQPENIKISNITHSSAVISWTILDGYSISSITIRYKVQGKNEDQHVDVKIKNATITQYQLKGLEPETAYQVDIFAENNIGSSNPAFSHELVTLPESQAPADLGGGKMLL
# Biological target: MT-100
# Assay: BLI
binder,measurement,value
B1,Kd,2.5 nM
same,koff,0.0011 s⁻¹
